Here are results for 2 substances from article PMC11610247.

Assay [1] deals with SNAP-flag-tagged GLP1R p.R380C (human) (UniProt P43220). Kind of assay: AlphaScreen or HTRF. (In general: Alpha assays give light when donor and acceptor beads are brought close together.)
The target in assay [2] is SNAP-flag-tagged WT GLP1R (glucagon-like peptide 1 receptor) (human) (UniProt P43220). Put plainly: AlphaScreen or HTRF.

The term IC50 denotes the concentration needed to halve the response being measured. Turning to “exendin-4 (from UniProt P26349 48-87) (peptide)”, in assay [1], the IC50 worked out at 400 nM.
For orientation: pIC50 means the negative decadic logarithm of the IC50, by convention in mol/L. A higher pIC50 goes with a small IC50. Turning to “exendin-4 (from UniProt P26349 48-87) (peptide; other documents disagree on this pair)”, in assay [2], the pIC50 was 8.13.
